Measurements from patent publication US20090240037A1 (IMMUNOMEDICS, published 2009).
Blank lines part the entries; values can stand above or below the molecule they belong to.

Assays:
[1] = target: CD20 (human B lymphocyte-restricted differentiation antigen Bp35) on Raji cells (human) (UniProt P11836); test: cell surface competitive binding on Raji cells, 4 C, 1-2 h; competitor tracer 125I-labeled rituximab; column head IC50 nM
[2] = target: CD20 (human B lymphocyte-restricted differentiation antigen Bp35) on Raji cells (human) (UniProt P11836); test: staining of NHL cell lines (Raji, Ramos, RL, Daudi, Su-DHL-6)
[3] = target: CD20 (human B lymphocyte-restricted differentiation antigen Bp35) on Raji cells (human) (UniProt P11836); test: cell surface competitive binding on Raji cells, 4 C, 1-2 h; unlabeled rituximab against tracer 125I-labeled c2B8/rituximab
[4] = target: CD20 (human B lymphocyte-restricted differentiation antigen Bp35) on Raji cells (human) (UniProt P11836); test: cell surface competitive binding on Raji cells, 4 C, 1-2 h; unlabeled rituximab against tracer 125I-labeled rituximab; column head IC50 nM
[5] = target: CD20 (human B lymphocyte-restricted differentiation antigen Bp35) on Raji cells (human) (UniProt P11836); test: direct binding of radiolabeled MAb to Raji cells, Scatchard plot analysis
[6] = target: CD20 (human B lymphocyte-restricted differentiation antigen Bp35) on Raji cells (human) (UniProt P11836); test: cell surface competitive binding on Raji cells, 4 C, 1-2 h; unlabeled murine A20 against tracer 125I-labeled murine A20
[7] = target: CD20 (human B lymphocyte-restricted differentiation antigen Bp35) on Raji cells (human) (UniProt P11836); test: cell surface competitive binding on Raji cells; unlabeled murine A20 against tracer 125I-labeled murine A20
[8] = target: T1, soluble CEA (Scripps Laboratories) (UniProt P06731 35-685, limits assumed); test: competitive ELISA on CEA-coated wells (0.5 ug/well); competitor HRP-conjugated hMN14 IgG, 1 nM
T1 construct: Coated at 0.5 ug/well in the ELISA; also injected as soluble analyte in BIAcore
T1 sequence (looked up): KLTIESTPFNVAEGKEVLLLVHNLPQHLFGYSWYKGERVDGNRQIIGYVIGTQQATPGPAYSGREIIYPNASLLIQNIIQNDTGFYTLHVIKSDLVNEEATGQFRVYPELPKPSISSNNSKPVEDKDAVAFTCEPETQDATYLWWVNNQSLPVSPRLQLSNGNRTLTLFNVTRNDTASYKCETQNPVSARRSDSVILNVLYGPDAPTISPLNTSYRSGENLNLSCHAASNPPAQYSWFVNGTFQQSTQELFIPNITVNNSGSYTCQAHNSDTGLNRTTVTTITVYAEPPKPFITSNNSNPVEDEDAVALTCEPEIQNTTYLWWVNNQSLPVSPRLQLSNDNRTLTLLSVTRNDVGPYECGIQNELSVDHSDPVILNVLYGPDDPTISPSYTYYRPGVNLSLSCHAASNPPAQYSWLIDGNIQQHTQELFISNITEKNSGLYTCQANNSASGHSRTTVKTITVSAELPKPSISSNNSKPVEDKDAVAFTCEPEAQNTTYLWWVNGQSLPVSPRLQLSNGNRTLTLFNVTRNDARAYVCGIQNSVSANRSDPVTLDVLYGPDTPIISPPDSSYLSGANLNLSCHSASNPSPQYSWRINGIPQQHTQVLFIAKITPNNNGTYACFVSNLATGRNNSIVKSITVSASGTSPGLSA
Method: FIG. 15 is a graphical representation of the results of a competitive enzyme-linked immunosorbent assay (ELISA). […] The % inhibition is plotted vs. nM concentration of sample.
Microtiter plates were coated with 0.5 μg/well with soluble CEA (Scripps Laboratories).

[9] = target: T1, soluble CEA (Scripps Laboratories); test: ELISA on CEA
[10] = target: T1, soluble CEA (Scripps Laboratories); test: competitive ELISA; antigen not given, CEA per paragraph 119
[11] = target: T2, CD20 (human B lymphocyte-restricted differentiation antigen Bp35) on Raji cells (human, UniProt P11836 1-297); test: cell surface competitive binding on Raji cells, 4 C, 1-2 h; competitor tracer 125I-labeled murine 2B8
T2 construct: whole, on cells; The assays name the cells (Raji, Ramos, RL, Daudi, Su-DHL-6); also called CD20 antigen; hCD20
T2 sequence (looked up): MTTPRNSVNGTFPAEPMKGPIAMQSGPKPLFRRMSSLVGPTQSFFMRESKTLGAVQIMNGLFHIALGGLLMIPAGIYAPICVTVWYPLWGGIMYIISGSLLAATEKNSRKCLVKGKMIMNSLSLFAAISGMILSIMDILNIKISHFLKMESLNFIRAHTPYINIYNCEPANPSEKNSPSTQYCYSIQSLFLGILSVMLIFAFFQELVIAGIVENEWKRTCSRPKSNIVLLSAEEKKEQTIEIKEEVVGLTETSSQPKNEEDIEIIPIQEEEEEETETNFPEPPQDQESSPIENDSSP
Method: (§1) Unbound Abs were removed by washing the cells with PBS. Radioactivity associated with the cells was determined after washing.

[12] = target: T2, CD20 (human B lymphocyte-restricted …); test: cell surface competitive binding on Raji cells, 4 C, 1-2 h; competitor tracer 125I-labeled murine A20
Method: (§2) Unbound Abs were removed by washing the cells in PBS. The radioactivity associated with cells was determined after washing.

[13] = target: T2, CD20 (human B lymphocyte-restricted …); test: cell surface competitive binding on Raji cells, 4 C, 1-2 h; competitor tracer 125I-labeled rituximab; column head IC50 nM
Method: as §1

[14] = target: T2, CD20 (human B lymphocyte-restricted …); test: cell surface competitive binding on Raji cells, 4 C, 1-2 h; competitor tracer 125I-labeled c2B8/rituximab
[15] = target: T2, CD20 (human B lymphocyte-restricted …); test: cell surface competitive binding on Raji cells; competitor tracer 125I-labeled murine A20
Method: as §2

[16] = target: T2, CD20 (human B lymphocyte-restricted …); test: direct binding of radiolabeled MAb to Raji cells, Scatchard plot analysis
[17] = target: T2, CD20 (human B lymphocyte-restricted …); test: cell surface competitive binding on Raji cells, 4 C, 1-2 h; competitor tracer 125I-labeled rituximab
Method: as §1

- IC50 [1]: 34 nM
Molecule: murine B1 anti-CD20 antibody

- percent of cells stained [2]: > 99%
- IC50 (read off the curve) [3]: 7 nM
- IC50 [4]: 5 nM
Molecule: rituximab (IDEC Pharmaceuticals Corp.) (antibody)

- percent of cells stained [2]: > 99%
- Kd [5]: 4.2 nM
Molecule: hA20, humanized anti-CD20 antibody (variant hA20-1 or hA20-2 not specified)

- IC50 (read off the curve) [11]: ~10 nM
- IC50 (read off the curve) [12]: ~4 nM
B6: hA20-2, humanized anti-CD20 antibody (hA20VH2 + hA20Vk) (antibody, human IgG1, V domains shown)
VH: QVQLQQSGAEVKKPGSSVKVSCKASGYTFSSYNMHWVRQAPGQGLEWMGAIYPGNGDTSYNQKFKGRATITADESTNTAYMELSSLRSEDTAFYFCARSTYYGGDWYFDVWGQGTTVTVSS
VL: DIQLTQSPSSLSASVGDRVTMTCRASSSVSYIHWFQQKPGKAPKPWIYATSNLASGVPVRFSGSGSGTDYTFTISSLQPEDIATYYCQQWTSNPPTFGGGTKLEIKR

- IC50 (read off the curve) [11]: ~9 nM
- IC50 (read off the curve) [15]: ~10 nM
- Kd [16]: 2.9 nM
- IC50 (read off the curve) [14]: ~6 nM
- IC50 (read off the curve) [17]: ~9 nM
B7: cA20, chimeric anti-CD20 antibody (antibody, V domains shown)
VH: QVQLQQPGAELVKPGASVKMSCKASGYTFTSYNMHWVKQTPGRGLEWIGAIYPGNGDTSYNQKFKGKATLTADKSSSTAYMQLSSLTSEDSAVYYCARSTYYGGDWYFDVWGQGTTVTVSS
VL: DIQLTQSPAILSASPGEKVTMTCRASSSVSYIHWFQQKPGSSPKPWIYATSNLASGVPVRFSGSGSGTSYSLTISRVEAEDAATYYCQQWTSNPPTFGGGTKLEIK
notes: Murine A20 variable domains with human constant regions; expressed in Sp2/0 cells; also called chimeric A20

More lines, now with the values behind:

Molecule: A20, murine anti-CD20 MAb (antibody)
- IC50 (read off the curve) [6]: 4 nM
- IC50 (read off the curve) [7]: 20 nM

B1: BS1.5 (679 x hMN14 bispecific diabody: variant 2) (bispecific antibody)
chain 1: MEVQLVESGGDLVKPGGSLKLSCAASGFTFSIYTMSWLRQTPEKRLEWVATLSGDGDDIYYPDSVKGRFTISRDNAKNNLYLQMNSLRSADTALYYCARVRLGDWDFDVWGQGTTVSVSSGGGGSDIQLTQSPSSLSASVGDRVTITCKASQDVGTSVAWYQQKPGKAPKLLIYWTSTRHTGVPSRFSGSGSGTDFTFTISSLQPEDIATYYCQQYSLYRSFGQGTKVEIKRLEHHHHHH
chain 2: MEVQLVESGGGVVQPGRSLRLSCSASGFDFTTYWMSWVRQAPGKGLEWIGEIHPDSSTINYAPSLKDRFTISRDNAKNTLFLQMDSLRPEDTGVYFCASLYFGFPWFAYWGQGTPVTVSGGGGSDIVMSQSPSSLAVSPGEKVTMTCKSSQSLFNSRTRKNYLGWYQQKPGQSPKLLIYWASTRESGVPDRFTGSGSGTDFTLTINSVQSEDLAVYYCTQVYYLCTFGAGTKLELKRLEHHHHHH
notes: Heterodimer of the two polypeptides; pelB leaders removed; copies: 1 + 1
- binding result [8]: binds

B2: BS2 (679 x hMN14 bispecific diabody: variant 3) (bispecific antibody)
chain 1: MEVQLVESGGDLVKPGGSLKLSCAASGFTFSIYTMSWLRQTPEKRLEWVATLSGDGDDIYYPDSVKGRFTISRDNAKNNLYLQMNSLRSADTALYYCARVRLGDWDFDVWGQGTTVSVSSGGGGSDIQLTQSPSSLSASVGDRVTITCKASQDVGTSVAWYQQKPGKAPKLLIYWTSTRHTGVPSRFSGSGSGTDFTFTISSLQPEDIATYYCQQYSLYRSFGQGTKVEIKRLEHHHHHH
chain 2: MEVQLVESGGGVVQPGRSLRLSCSASGFDFTTYWMSWVRQAPGKGLEWIGEIHPDSSTINYAPSLKDRFTISRDNAKNTLFLQMDSLRPEDTGVYFCASLYFGFPWFAYWGQGTPVTVSGGGGSDIVMSQSPSSLAVSPGEKVTMTCKSSQSLFNSRTRKNYLGWYQQKPGQSPKLLIYWASTRESGVPDRFTGSGSGTDFTLTINSVQSEDLAVYYCTQVYYLSTFGAGTKLELKRLEHHHHHH
notes: as for B1
- binding result [9]: binds

B3: BS1 (679 x hMN14 bispecific diabody: variant 1) (bispecific antibody)
chain 1: MEVILVESGGDLVKPGGSLKLSCAASGFTFSIYTMSWLRQTPEKRLEWVATLSGDGDDIYYPDSVKGRFTISRDNAKNNLYLQMNSLRSADTALYYCARVRLGDWDFDVWGQGTTVSVSSGGGGSDIQLTQSPSSLSASVGDRVTITCKASQDVGTSVAWYQQKPGKAPKLLIYWTSTRHTGVPSRFSGSGSGTDFTFTISSLQPEDIATYYCQQYSLYRSFGQGTKVEIKRLEHHHHHH
chain 2: MEVQLVESGGGVVQPGRSLRLSCSASGFDFTTYWMSWVRQAPGKGLEWIGEIHPDSSTINYAPSLKDRFTISRDNAKNTLFLQMDSLRPEDTGVYFCASLYFGFPWFAYWGQGTPVTVSGGGGSDIVMSQSPSSLAVSPGEKVTMTCKSSQSLFNSRTRKNYLGWYQQKPGQSPKLLIYWASTRESGVPDRFTGSGSGTDFTLTINSVQSEDLAVYYCTQVYYLCTFGAGTKLELKRLEHHHHHH
notes: as for B1
- binding result [9]: binds

B4: hMN14 diabody (hMN14-scFv-L5) (scFv)
scFv: MEVQLVESGGGVVQPGRSLRLSCSASGFDFTTYWMSWVRQAPGKGLEWIGEIHPDSSTINYAPSLKDRFTISRDNAKNTLFLQMDSLRPEDTGVYFCASLYFGFPWFAYWGQGTPVTVSGGGGSDIQLTQSPSSLSASVGDRVTITCKASQDVGTSVAWYQQKPGKAPKLLIYWTSTRHTGVPSRFSGSGSGTDFTFTISSLQPEDIATYYCQQYSLYRSFGQGTKVEIKRLEHHHHHH
modifications: Non-covalent homodimer (diabody) of two copies of this chain.
notes: Non-covalent homodimer of the scFv; the pelB leader is removed in the mature polypeptide; One codon before the VH and two between the VK and the tag are not spelled out in the text
- binding result [10]: binds

B5: hA20-1, humanized anti-CD20 antibody (hA20VH1 + hA20Vk) (antibody, human IgG1, V domains shown)
VH: QVQLQQSGAEVKKPGSSVKVSCKASGYTFTSYNMHWVKQAPGQGLEWIGAIYPGNGDTSYNQKFKGKATLTADESTNTAYMELSSLRSEDTAFYYCARSTYYGGDWYFDVWGQGTTVTVSS
VL: DIQLTQSPSSLSASVGDRVTMTCRASSSVSYIHWFQQKPGKAPKPWIYATSNLASGVPVRFSGSGSGTDYTFTISSLQPEDIATYYCQQWTSNPPTFGGGTKLEIKR
- IC50 (read off the curve) [11]: ~10 nM
- IC50 (read off the curve) [12]: ~4 nM
- IC50 [13]: 6.8 nM
- IC50 (read off the curve) [14]: ~9 nM
